Tests used:
[1] = biological target: T1, human PD-1^ECD-hFc protein (Immunogen A) (human, UniProt Q15116 25-167); test: ELISA, coated human PD-1ECD-hFc; antibody 0.00001 nM
T1 construct: Biotinylated for the Octet assay; also called PD-1-hFc; hPD-1^ECD-hFc; not shown: human IgG Fc fragment (hFc)
Protocol: (§1) 100 uL of the diluted recombinant proteins were added to each well of 96-well plate. The plates were sealed with plastic film and incubated at 4° C. overnight. The plates were washed twice with wash buffer (PBS+0.01% (v/v) Tween20), and incubated with blocking buffer (PBS+0.01% (v/v) Tween20+1% (w/w) BSA) at room temperature for 2 hours. The blocking buffer was aspirated away, and 100 uL of purified anti-PD-1 antibodies were added to each well and incubated for 2 hours at 37° C. The plates were washed three times with wash buffer (PBS+0.01% (v/v) Tween20). HRP-conjugated secondary antibody (Sigma) was added to each well and incubated for 2 hours at 37° C. After the plates were washed three times with wash buffer, 100 uL TMB substrate was added to each well and incubated for 30 minutes at room temperature. 100 uL stop solution (0.1N HCl) was added to each well to stop the reaction. The absorbance at 450 nm was measured with an ELISA plate reader (384plus SpectraMax, Molecular Devices).

[2] = biological target: T1, human PD-1^ECD-hFc protein (Immunogen A); test: ELISA, coated human PD-1ECD-hFc; antibody 0.0001 nM
Protocol: as §1

T1 sequence (Q15116 25-167): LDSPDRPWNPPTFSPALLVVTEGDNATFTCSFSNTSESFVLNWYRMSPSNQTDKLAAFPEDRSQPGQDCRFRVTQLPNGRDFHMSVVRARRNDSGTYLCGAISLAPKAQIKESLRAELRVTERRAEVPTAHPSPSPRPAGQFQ

OD450 nm [1]: 0.405 | OD450 nm [2]: 0.433
B1: chimeric anti-PD-1 antibody 21G8F11 (antibody, V domains shown)
VH: EVQLLESGGGLAQPGGSLRLSCAASGFSFNTYLMHWVRQAPGKGLEWVSAISGGGGNTYYADSVKGRFTISRDNSKNTLYLQMNSLRAEDTAVYYCAKENRIPVAPFDYWGQGTLVTVSS
VL: DIQMTQSPSTLSASVGDRVTITCRASQSISTWLAWYQQKPGKAPKLLIYKASSLESGVPSRFSGSGSGTEFTLTISSLQPDDLATYYCQQYNSFSWTFGQGTKVEIK
notes: Purified from hybridoma of Harbour H2L2 mice: human variable regions, rat constant regions

Source: US20180214548A1 (SHANGHAI YUNYI HEALTHCARE AND TECHNOLOGY, published 2018)
